# Publication PMC11871066, “Structure-based discovery of hydrocarbon-stapled paxillin peptides that block FAK scaffolding in cancer” (Nature Communications, 2025)
# Bridge positions count the residues as written; N and C are the ends. Square brackets hold non-standard residues; d marks the D form. R8 = C=CCCCCCC[C@@](C)(N)C(=O)O; R5 = C=CCCC[C@@](C)(N)C(=O)O; S5 = C=CCCC[C@](C)(N)C(=O)O
# B1: stapled peptide 1920 (lengthened 1907) (peptide)
# chain: Ac-SLGSNL[R8]ELDRLL[S5]ELNAVQH-NH2
# modifications: staple 7-14
# SMILES: CC(=O)N[C@@H](CO)C(=O)N[C@@H](CC(C)C)C(=O)NCC(=O)N[C@@H](CO)C(=O)N[C@@H](CC(N)=O)C(=O)N[C@@H](CC(C)C)C(=O)N[C@]1(C)CCCCCCC=CCCC[C@@](C)(C(=O)N[C@@H](CCC(=O)O)C(=O)N[C@@H](CC(C)C)C(=O)N[C@@H](CC(N)=O)C(=O)N[C@@H](C)C(=O)N[C@H](C(=O)N[C@@H](CCC(N)=O)C(=O)N[C@@H](Cc2c[nH]cn2)C(N)=O)C(C)C)NC(=O)[C@H](CC(C)C)NC(=O)[C@H](CC(C)C)NC(=O)[C@H](CCCNC(=N)N)NC(=O)[C@H](CC(=O)O)NC(=O)[C@H](CC(C)C)NC(=O)[C@H](CCC(=O)O)NC1=O
# Key:
# [1] = molecular target: T1, recombinant FAK FAT protein (fluorescence polarisation assay) (human); experiment: fluorescence polarisation; competition: FAT 25 µM, TAMRA-LD2 L10D probe 0.1 µM, peptide titrated from 1.25 mM, 3 h; 20 mM Tris-Cl pH 8.0, 200 mM NaCl, 0.05% β-mercaptoethanol, 0.1% Triton-X 100, 5% glycerol; Ki calculated from IC50; details: both partners purified
# T1 construct: focal adhesion kinase (FAK), focal adhesion targeting (FAT) domain
# [2] = molecular target: T2, biotinylated AviTag FAK FAT protein (human, biotin); experiment: SPR; biotinylated AviTag FAT immobilised on a streptavidin (SADH) biosensor, ForteBio Pioneer FE, OneStep gradient injection at 150 µl/min; 100 mM Tris-Cl pH 8.0, 200 mM NaCl, 0.05% Tween-20; peptides 200 µM to 97 nM; KD from kinetic data, one-site model; details: both partners purified
# T2 construct: focal adhesion kinase (FAK), focal adhesion targeting (FAT) domain; captured on a streptavidin biosensor; also called focal adhesion targeting (FAT) domain
Binder,Ki [1],Kd [2]
Ac-NLSE[R8]DRLLLE[S5]N-NH2 (staple 5-12) [stapled peptide 1914],> 1250 µM,120 µM
Ac-[R8]ELDRLL[S5]-NH2 (staple 1-8) [truncated stapled peptide 2011],> 333 µM,> 200 µM
Ac-NL[R8]QLDRLL[S5]QLN-NH2 (staple 3-10) [stapled peptide 1910],46.8 µM,22.6 µM
Ac-DL[R8]ELDRLL[S5]ELD-NH2 (staple 3-10) [stapled peptide 1913],21.8 µM,13.7 µM
Ac-NL[R8]EWDRLL[S5]EWN-NH2 (staple 3-10) [stapled peptide 1933],281 µM,155 µM
Ac-NLSE[S5]DRL[S5]LELN-NH2 (staple 5-9) [stapled peptide 1919],38.6 µM,80.6 µM
Ac-NLSELDRL[R5]LE[S5]N-NH2 (staple 9-12) [stapled peptide 1921],492 µM,> 200 µM
Ac-NLSELDR[S5]LLE[S5]N-NH2 (staple 8-12) [stapled peptide 2015],114 µM,30.6 µM
Ac-N[R8]SELDRL[S5]LELN-NH2 (staple 2-9) [stapled peptide 2017],80.6 µM,27.9 µM
Ac-NLS[R8]LDRLLL[S5]LN-NH2 (staple 4-11) [stapled peptide 1905],> 1250 µM,146 µM
Ac-NL[R8]ELDRLW[S5]ELN-NH2 (staple 3-10) [stapled peptide 2007],190 µM,60.6 µM
Ac-NL[R8]ALDRLL[S5]ELN-NH2 (staple 3-10) [stapled peptide 2009],26.7 µM,3.4 µM
Ac-NL[R8]ALDALL[S5]ELN-NH2 (staple 3-10) [stapled peptide 2010],68.5 µM,12.6 µM
B1,25 µM,
